{"source": "patent US6420345", "key": {"CDC2/cyclin B complex": {"biological_target": "CDC2/cyclin B complex (UniProt P06493)", "sequence (P06493 whole entry, chain 1 of 2)": "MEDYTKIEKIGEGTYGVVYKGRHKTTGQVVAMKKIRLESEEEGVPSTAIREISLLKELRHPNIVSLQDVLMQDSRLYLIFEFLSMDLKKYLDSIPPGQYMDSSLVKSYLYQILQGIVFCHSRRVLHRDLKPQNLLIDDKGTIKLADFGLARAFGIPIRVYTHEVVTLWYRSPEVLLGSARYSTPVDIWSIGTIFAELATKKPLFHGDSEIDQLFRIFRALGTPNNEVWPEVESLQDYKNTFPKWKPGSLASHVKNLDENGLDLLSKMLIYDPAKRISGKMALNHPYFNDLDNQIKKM", "sequence (P14635 whole entry, chain 2 of 2, further chain)": "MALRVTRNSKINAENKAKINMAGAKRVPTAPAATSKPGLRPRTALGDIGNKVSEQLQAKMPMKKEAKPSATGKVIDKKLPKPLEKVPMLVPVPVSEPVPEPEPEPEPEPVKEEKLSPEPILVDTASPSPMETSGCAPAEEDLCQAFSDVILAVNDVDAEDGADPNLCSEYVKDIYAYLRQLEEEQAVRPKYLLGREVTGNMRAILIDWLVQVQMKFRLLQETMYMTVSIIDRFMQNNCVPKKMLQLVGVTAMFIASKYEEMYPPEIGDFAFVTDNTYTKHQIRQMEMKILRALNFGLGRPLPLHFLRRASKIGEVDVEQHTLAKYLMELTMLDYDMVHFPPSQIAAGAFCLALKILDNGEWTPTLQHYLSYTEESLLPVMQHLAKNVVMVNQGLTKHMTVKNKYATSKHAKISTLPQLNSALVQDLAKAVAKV", "test": "cell-based or functional assay"}, "CDK4/cyclin D1 complex [1]": {"biological_target": "CDK4/cyclin D1 complex (UniProt P11802)", "sequence (P11802 whole entry, chain 1 of 2)": "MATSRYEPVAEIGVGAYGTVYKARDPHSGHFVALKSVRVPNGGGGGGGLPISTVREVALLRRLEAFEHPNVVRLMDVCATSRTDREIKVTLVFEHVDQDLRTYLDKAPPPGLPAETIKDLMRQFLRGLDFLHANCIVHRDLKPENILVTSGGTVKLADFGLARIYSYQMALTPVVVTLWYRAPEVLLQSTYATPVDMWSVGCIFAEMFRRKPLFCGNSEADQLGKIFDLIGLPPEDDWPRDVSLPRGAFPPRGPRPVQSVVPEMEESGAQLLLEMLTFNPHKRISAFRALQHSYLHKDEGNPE", "sequence (P24385 whole entry, chain 2 of 2, further chain)": "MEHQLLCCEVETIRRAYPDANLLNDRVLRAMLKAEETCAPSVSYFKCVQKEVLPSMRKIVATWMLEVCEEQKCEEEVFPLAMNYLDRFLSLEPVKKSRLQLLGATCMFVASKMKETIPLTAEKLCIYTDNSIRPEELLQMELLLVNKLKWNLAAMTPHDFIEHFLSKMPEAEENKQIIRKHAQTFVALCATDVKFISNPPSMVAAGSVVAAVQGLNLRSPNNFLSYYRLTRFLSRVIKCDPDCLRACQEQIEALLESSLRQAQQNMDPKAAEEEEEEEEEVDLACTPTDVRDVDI", "test": "cell-based or functional assay"}, "CDK2/cyclin A complex": {"biological_target": "CDK2/cyclin A complex (UniProt P24941)", "test": "cell-based or functional assay"}, "CDK2/cyclin E complex": {"biological_target": "CDK2/cyclin E complex (UniProt P24941)", "test": "cell-based or functional assay"}, "CDK4/cyclin D1 complex [2]": {"biological_target": "CDK4/cyclin D1 complex (UniProt P11802)", "test": "in vitro kinase inhibition assay (32P incorporation into GST-Rb)"}}, "data": [{"substance": "human p27 (full length, 6xHis and HA tagged) (from UniProt P46527 1-198)", "values": [{"measurement": "IC50, in vitro kinase assay", "setting": "CDC2/cyclin B complex", "result": 20, "unit": "nM"}, {"measurement": "IC50, in vitro kinase assay", "setting": "CDK4/cyclin D1 complex [1]", "result": 63, "unit": "nM"}]}, {"substance": "p27-p16 fusion protein", "values": [{"measurement": "IC50, in vitro kinase assay", "setting": "CDC2/cyclin B complex", "result": 15, "unit": "nM"}, {"measurement": "IC50, in vitro kinase assay", "setting": "CDK2/cyclin A complex", "result": 25, "unit": "nM"}, {"measurement": "IC50, in vitro kinase assay", "setting": "CDK2/cyclin E complex", "result": 30, "unit": "nM"}, {"measurement": "IC50, in vitro kinase assay", "setting": "CDK4/cyclin D1 complex [1]", "result": 25, "unit": "nM"}, {"measurement": "Ki", "setting": "CDK4/cyclin D1 complex [2]", "result": 23, "unit": "nM"}]}]}
